In patent US10124019B2, “Compositions and their use for removing cholesterol” (Cornell University, priority 2009, dated 2018):

Columns and labels:
[1] = system: NPC1-deficient, NPC2-deficient, apparently normal, and U18666A-treated normal cells; experiment: GC/MS measurement of total free cholesterol; type: cell-based, human; details: normal cells treated with 1 μM U18666A
Protocol: FIGS. […]. Charts showing GC/MS measurement of cyclodextrin effects on total free cholesterol levels in NPC1-deficient, NPC2-deficient, apparently normal, and U18666A-treated normal cells. […] Cells were treated with 0.9 mM MβCD or HPβCD for 1 day in growth medium. At the end of the experiment, cellular lipids were extracted and analyzed by GC/MS. Data represent averages±SEM of two independent experiments normalized to control average value for each experiment.

[2] = system: U18666A-treated GM05659 cells; experiment: LSO filipin assay in U18666A-treated apparently normal fibroblasts; details: GM05659 treated with various concentrations of U18666A (FIG. 14A)
Protocol: Cells were plated in 384-well assay plates at a density to produce ≈80-90% confluency by experiment completion and treated with U18666A at indicated concentrations for 24 hour before addition of various concentrations of either MβCD or HPβCD for another 24 hours, during which indicated U18666A levels were maintained. At the end of the experiment, cells were fixed with 1% PFA and stained with 50 μg/mL filipin. Images were acquired using an ImageXpressMICRO imaging system with a 10× objective. […] (A) Cholesterol accumulation, as measured by the LSO filipin assay, at different concentrations of U18666A. MβCD (B) and HPβCD (C) LSO filipin dose-response curves at three different U18666A concentrations. […] Data represent averages±SEM of two independent experiments (n=12 for control and n=6 for treated, where n is total number of wells per condition used for quantification).

NPC (GM03123) Fbs [3] = experiment: rhASM enzyme replacement, LSO filipin quantification in NPC fibroblasts; type: cell-based, human
Protocol: FIGS. 27 A-C. Graph showing the effect of SMase restoration on human NPC1 cells (exogenous acid SMase decreases cholesterol accumulation in LSOs in human NPC fibroblasts). Parallel sets of human WT (GM05659) and NPC (GM03123) Fbs were incubated in medium alone or, in the case of the NPC fibroblasts, medium containing 3 μg/mL recombinant human acid SMase (rhASM). Two days later, the cells were washed thoroughly with PBS and either lysed and assayed for acid SMase activity (A), or fixed and stained with filipin for imaging and quantification (B). […] Scale bar, 15 μm. The quantified data in the bar graph represent LSO ratios normalized to the WT Fb values (average of 60-66 images from three independent experiments±SEM). C) Another human NPC Fbs (GM18453) was incubated with 3 μg/mL rhASM for 24 h, unlike 48 h in NPC1 (GM03123). Quantified data shown in bar chart are the normalized LSO ratios (normalized to untreated NPC Fbs) in the presence and absence of recombinant enzyme. Data represents an average from two independent experiments and 30-36 images±SEM, p<0.0001.
(§1) FIG. 29 A,B. Decreased LSO cholesterol accumulation and increased acid SMase activity are achieved in NPC1 human fibroblasts by increasing amounts of rhASM. WT (GM5659) and NPC (GM03123) Fbs were incubated with 0, 0.2 and 1.8 μg/mL rhASM for 24 hours. To remove surface-bound label, the cells were further incubated for 15 minutes with growth medium without the enzyme. The cells were washed thoroughly with PBS and either lysed and assayed for acid SMase activity (A) or fixed and stained with filipin for imaging and quantification (B). Each data point in plot (A) is representative of three wells in an experiment, p<0.05. Plot (B) represents LSO ratios normalized to the untreated NPC Fb […] values (average of 16-20 images from two independent experiments±SEM), p<0.005.
(§2) Normal (GM05659) and NPC1 human fibroblasts (GM03123) were incubated in a medium containing 3 μg/mL recombinant human acid SMase (rhASM). Two days later, the cells were washed thoroughly with PBS, and either lysed and assayed for acid SMase activity or fixed and stained with filipin for imaging and quantification. NPC1 human fibroblasts GM18453 were treated with 3 μg/mL rhASM for 24 h before fixing, staining with filipin, imaging and quantifying.
Cells were plated onto poly-d-lysine-coated 35-mm coverslip dishes in a medium containing 10% FBS. After 1-2 days of growth, the cell monolayers were washed three times with PBS and then fixed with 3% paraformaldehyde in PBS for 20 minutes at room temperature, followed by three more washes with PBS. To detect free cholesterol, filipin was added to the fixed cells (50 μg/mL in PBS) for 45 minutes at room temperature. Finally, the cells were washed three times with PBS, and images were acquired immediately after labeling.
(§3) Images were analyzed using Metamorph (version 7.0 r4) image analysis software from Molecular Devices (MDS Analytical Technologies). All images were corrected for background before analysis. The average filipin and LSO ratio was calculated as described previously (Pipalia 2006). The LSO ratio was calculated based on low-thresholded region and high-thresholded intensities in the filipin image as described previously (Pipalia 2006).

WT Fbs (GM05659) [4] = experiment: Acid SMase activity assay after rhASM, wild-type fibroblasts; type: cell-based, human; details: 24 hours
Protocol: as §1
Cell extracts were prepared by scraping cells into ice-cold 250 mM sucrose, followed by sonication on ice twice for 10 seconds each using a Branson Sonifier 450. To prepare the substrate, solvent from 0.1 μCi [cholinemethyl-^14C] […] The assay solution, which was added to 1.5-mL microcentrifuge tubes on ice, consisted of 50 μL assay buffer, 20 μL substrate and 20 μL of cell extract. After incubation for 60 minutes at 37° C., the reaction was terminated by adding 125 μL of chloroform:methanol (2:1, v/v). The assay tubes were vortexed for 1 minute and then centrifuged 5000×g for 5 minutes at 4° C. […]

WT Fbs (GM05659) [5] = experiment: rhASM, LSO filipin quantification in wild-type fibroblasts; type: cell-based, human; details: all doses of rhASM tested (0, 0.2, 1.8 μg/mL)
Protocol: as §1
Cells were plated onto poly-d-lysine-coated 35-mm coverslip dishes in a medium containing 10% FBS. […]
as §3, with “All images were corrected for background before analysis.” left out

NPC (GM03123) Fbs [6] = experiment: Acid SMase activity assay after rhASM, NPC fibroblasts; type: cell-based, human
Protocol: as §1
Cell extracts were prepared by scraping cells into ice-cold 250 mM sucrose, followed by sonication on ice twice for 10 seconds each using a Branson Sonifier 450. […]
as §2

[7] = system: WT (GM05659) and NPC (GM03123) human fibroblasts; experiment: Sub-cellular localization and uptake of Alexa555-conjugated rhASM; type: cell-based; details: data not shown
Protocol: WT (GM5659) and NPC (GM03123) Fbs were incubated with or without 3 μg/mL Alexa555-conjugated rhASM for 24 hours. To remove surface-bound label, the cells were further incubated for 15 min with a growth medium without the enzyme. Finally, the cells were washed with PBS, fixed with 1.5% PFA, and stained with filipin for imaging and quantification. […] Color overlays for filipin (green) and rhASM-Alexa555 (red) are shown in panels (C, F and I). The images in the inset are the zoomed color overlays of the region marked in (C, F and I). Scale bar=10 μm.
For identifying the localization of rhASM in the cells, recombinant enzyme was conjugated with Alexa555 (Invitrogen) according to the manufacturer's protocol. Normal (GM05659) and NPC1 human fibroblasts (GM03123) were incubated in a medium containing 3 μg/mL Alexa555-rhASM for 24 h prior to fixing and staining with filipin. Images were acquired using standard UV and TRITC filters for filipin and Alexa555-labeled rhASM, and quantified.
To ascertain whether exogenously added rhASM was localized and processed in late endosomal organelles, WT (GM05659) and NPC (GM03123) human fibroblasts were incubated for 24 hours in the absence or presence of 3 μg/mL of Alexa555-labeled rhASM. […] The cells were then washed, fixed and stained with filipin for imaging and quantification. […]

How did the “free cholesterol per μg cell protein” value [1] turn out when `CCN(CC)CCO[C@H]1CC[C@@]2(C)C(=CC[C@@H]3[C@@H]2CC[C@]2(C)C(=O)CC[C@@H]32)C1` [U18666A, 3-β-[(2-diethyl-amino)ethoxy]androst-5-en-17-one] was run?
The value was 0.074 ± 0.006 pmol/µg.

And the “extent of cholesterol accumulation in LSOs” value [2]?
The value was “dose dependent”.

B1: rhASM: Recombinant human acid SMase prepared from transfected CHO cells (protein, UniProt P17405 47-631, looked up)
Sphingomyelin …: LALSDSRVLWAPAEAHPLSPQGHPARLHRIVPRLRDVFGWGNLTCPICKGLFTAINLGLKKEPNVARVGSVAIKLCNLLKIAPPAVCQSIVHLFEDDMVEVWRRSVLSPSEACGLLLGSTCGHWDIFSSWNISLPTVPKPPPKPPSPPAPGAPVSRILFLTDLHWDHDYLEGTDPDCADPLCCRRGSGLPPASRPGAGYWGEYSKCDLPLRTLESLLSGLGPAGPFDMVYWTGDIPAHDVWHQTRQDQLRALTTVTALVRKFLGPVPVYPAVGNHESTPVNSFPPPFIEGNHSSRWLYEAMAKAWEPWLPAEALRTLRIGGFYALSPYPGLRLISLNMNFCSRENFWLLINSTDPAGQLQWLVGELQAAEDRGDKVHIIGHIPPGHCLKSWSWNYYRIVARYENTLAAQFFGHTHVDEFEVFYDEETLSRPLAVAFLAPSATTYIGLNPGYRVYQIDGNYSGSSHVVLDHETYILNLTQANIPGAIPHWQLLYRARETYGLPNTLPTAWHNLVYRMRGDMQLFQTFWFLYHKGHPPSEPCGTPCRLATLCAQLSARADSPALCRHLMPDGSLPEAQSLWPRPLFC
B1 was tested. Which “decrease in LSO filipin intensity” value (NPC (GM03123) Fbs [3]; 0.2 μg/mL rhASM, 24 hours) did it give?
Its value is ~20%.

What about the “reduction of LSO filipin intensity” value (NPC (GM03123) Fbs [3]; 1.8 μg/mL rhASM, 24 hours) of the same molecule?
Its value is ~60%.

What about the “decrease in LSO filipin intensity” value (NPC (GM03123) Fbs [3]; 3 μg/mL rhASM (FIG. 27)) of the same molecule?
The value was 65-70%.

And the LSO filipin fluorescence (NPC (GM03123) Fbs [3]; 3 μg/mL rhASM, two days (FIG. 27B))?
The LSO filipin fluorescence was “dramatically decreased LSO filipin fluorescence”.

What about the residual cholesterol accumulation (NPC (GM03123) Fbs [3]; excess acid SMase, NPC1 cells) of the same molecule?
The residual cholesterol accumulation was 25-30%.

And the “acid SMase activity” value (WT Fbs (GM05659) [4]; 0.2 μg/mL rhASM)?
The value was “increased slightly”.

And the “acid SMase activity” value (WT Fbs (GM05659) [4]; 1.8 μg/mL rhASM)?
Its value is “did not increase further”.

What about the LSO filipin staining (WT Fbs (GM05659) [5]) of the same molecule?
Its LSO filipin staining is “remained low and constant”.

And the “acid SMase activity” value (NPC (GM03123) Fbs [6]; 0.2 μg/mL rhASM, 24 hours)?
The value was “increased acid SMase activity significantly”.

What about the “defect in acid SMase activity” value (NPC (GM03123) Fbs [6]; 3 μg/mL rhASM, two days (FIG. 27A)) of the same molecule?
The value was “corrected”.

B2: rhASM-Alexa555: recombinant enzyme conjugated with Alexa555 (conjugate, UniProt P17405 47-631, looked up)
Sphingomyelin …: B1 Sphingomyelin …
modifications: Alexa555 label
How did the “effect of Alexa555 conjugation on enzyme activity” value [7] turn out when B2 was run?
Its value is “did not affect its activity”.
